The source of these data is patent publication US12319925B2, “Methods and compositions for genomic integration” (Myeloid Therapeutics, Inc., priority 2021, dated 2025).

In data set [1] the test system is Jurkat cells. The data set can be described thus: GFP expression after delivery of LINE-1 plasmid or mRNA with CMV-GFP antisense reporter. The class given is cell-based. Conditions: 4 days post electroporation, relative to mock, FIG. 17B. As for the experimental part:
To test retrotransposition in immune cells, LINE-1 plasmid and mRNA were tested with the CMV-GFP antisense reporter cargo by electroporating into Jurkat cells, which is a T cell lymphoma line (FIG. 17A-FIG. 17B). Mock set were electroporated with a plasmid with no GFP sequence. Fold increase is reported relative to mock transfected cells.

For data set [2], the system named is THP-1 cells. Nature of the data set: Integration and expression of HER2 binder-T2A-GFP cargo after LINE-1 plasmid electroporation. Format: cell-based. Conditions: 3.7 kb cargo, day 6 post transfection, FIG. 18B. An excerpt: Next, THP-1 cells (a myeloid, monocytic cell line) were electroporated with a plasmid having LINE-1 sequences and a 3.7 kb cargo encoding a chimeric HER-2 binding receptor, and a split GFP (LINE-1 plasmid Her2-Cd3z-T2A-GFPintron) (FIG. 18A). The cargo is a chimeric receptor that comprises a HER2 binding extracellular domain, a CD3z transmembrane domain, and split GFP reporter. […] Moreover, unlike CRISPR dependent technologies such as Prime editing, retrotransposition can result in integration of large genetic cargo, and, these can be delivered as a single nucleic acid construct.

B1: LINE-1 plasmid GFP: plasmid with LINE-1 ORF1, ORF2 and CMV promoter driven split GFP gene in reverse orientation in the 3′UTR (SEQ ID NO: 37) (nucleic acid)
DNA: CGGCCGCGGGGGGAGGAGCCAAGATGGCCGAATAGGAACAGCTCCGGTCTACAGCTCCCAGCGTGAGCGACGCAGAAGACGGTGATTTCTGCATTTCCATCTGAGGTACCGGGTTCATCTCACTAGGGAGTGCCAGACAGTGGGCGCAGGCCAGTGTGTGTGCGCACCGTGCGCGAGCCGAAGCAGGGCGAGGCATTGCCTCACCTGGGAAGCGCAAGGGGTCAGGGAGTTCCCTTTCCGAGTCAAAGAAAGGGGTGACGGACGCACCTGGAAAATCGGGTCACTCCCACCCGAATATTGCGCTTTTCAGACCGGCTTAAGAAACGGCGCACCACGAGACTATATCCCACACCTGGCTCGGAGGGTCCTACGCCCACGGAATCTCGCTGATTGCTAGCACAGCAGTCTGAGATCAAACTGCAAGGCGGCAACGAGGCTGGGGGAGGGGCGCCCGCCATTGCCCAGGCTTGCTTAGGTAAACAAAGCAGCAGGGAAGCTCGAACTGGGTGGAGCCCACCACAGCTCAAGGAGGCCTGCCTGCCTCTGTAGGCTCCACCTCTGGGGGCAGGGCACAGACAAACAAAAAGACAGCAGTAACCTCTGCAGACTTAAGTGTCCCTGTCTGACAGCTTTGAAGAGAGCAGTGGTTCTCCCAGCACGCAGCTGGAGATCTGAGAACGGGCAGACTGCCTCCTCAAGTGGGTCCCTGACCCCTGACCCCCGAGCAGCCTAACTGGGAGGCACCCCCCAGCAGGGGCACACTGACACCTCACACGGCAGGGTATTCCAACAGACCTGCAGCTGAGGGTCCTGTCTGTTAGAAGGAAAACTAACAACCAGAAAGGACATCTACACCGAAAACCCATCTGTACATCACCATCATCAAAGACCAAAAGTAGATAAAACCACAAAGATGGGGAAAAAACAGAACAGAAAAACTGGAAACTCTAAAACGCAGAGCGCCTCTCCTCCTCCAAAGGAACGCAGTTCCTCACCAGCAACAGAACAAAGCTGGATGGAGAATGATTTTGATGAGCTGAGAGAAGAAGGCTTCAGACGATCAAATTACTCTGAGCTACGGGAGGACATTCAAACCAAAGGCAAAGAAGTTGAAAACTTTGAAAAAAATTTAGAAGAATGTATAACTAGAATAACCAATACAGAGAAGTGCTTAAAGGAGCTGATGGAGCTGAAAACCAAGGCTCGAGAACTACGTGAAGAATGCAGAAGCCTCAGGAGCCGATGCGATCAACTGGAAGAAAGGGTATCAGCAATGGAAGATGAAATGAATGAAATGAAGCGAGAAGGGAAGTTTAGAGAAAAAAGAATAAAAAGAAATGAGCAAAGCCTCCAAGAAATATGGGACTATGTGAAAAGACCAAATCTACGTCTGATTGGTGTACCTGAAAGTGATGTGGAGAATGGAACCAA
On to B1, for which the GFP expression entry in data set [1] was “successful GFP expression”.

B2: LINE-1 plasmid Her2-Cd3z-T2A-GFPintron: LINE-1 plasmid with cargo encoding chimeric HER-2 binding receptor and split GFP (SEQ ID NO: 41) (nucleic acid)
DNA: CGGCCGCGGGGGGAGGAGCCAAGATGGCCGAATAGGAACAGCTCCGGTCTACAGCTCCCAGCGTGAGCGACGCAGAAGACGGTGATTTCTGCATTTCCATCTGAGGTACCGGGTTCATCTCACTAGGGAGTGCCAGACAGTGGGCGCAGGCCAGTGTGTGTGCGCACCGTGCGCGAGCCGAAGCAGGGCGAGGCATTGCCTCACCTGGGAAGCGCAAGGGGTCAGGGAGTTCCCTTTCCGAGTCAAAGAAAGGGGTGACGGACGCACCTGGAAAATCGGGTCACTCCCACCCGAATATTGCGCTTTTCAGACCGGCTTAAGAAACGGCGCACCACGAGACTATATCCCACACCTGGCTCGGAGGGTCCTACGCCCACGGAATCTCGCTGATTGCTAGCACAGCAGTCTGAGATCAAACTGCAAGGCGGCAACGAGGCTGGGGGAGGGGCGCCCGCCATTGCCCAGGCTTGCTTAGGTAAACAAAGCAGCAGGGAAGCTCGAACTGGGTGGAGCCCACCACAGCTCAAGGAGGCCTGCCTGCCTCTGTAGGCTCCACCTCTGGGGGCAGGGCACAGACAAACAAAAAGACAGCAGTAACCTCTGCAGACTTAAGTGTCCCTGTCTGACAGCTTTGAAGAGAGCAGTGGTTCTCCCAGCACGCAGCTGGAGATCTGAGAACGGGCAGACTGCCTCCTCAAGTGGGTCCCTGACCCCTGACCCCCGAGCAGCCTAACTGGGAGGCACCCCCCAGCAGGGGCACACTGACACCTCACACGGCAGGGTATTCCAACAGACCTGCAGCTGAGGGTCCTGTCTGTTAGAAGGAAAACTAACAACCAGAAAGGACATCTACACCGAAAACCCATCTGTACATCACCATCATCAAAGACCAAAAGTAGATAAAACCACAAAGATGGGGAAAAAACAGAACAGAAAAACTGGAAACTCTAAAACGCAGAGCGCCTCTCCTCCTCCAAAGGAACGCAGTTCCTCACCAGCAACAGAACAAAGCTGGATGGAGAATGATTTTGATGAGCTGAGAGAAGAAGGCTTCAGACGATCAAATTACTCTGAGCTACGGGAGGACATTCAAACCAAAGGCAAAGAAGTTGAAAACTTTGAAAAAAATTTAGAAGAATGTATAACTAGAATAACCAATACAGAGAAGTGCTTAAAGGAGCTGATGGAGCTGAAAACCAAGGCTCGAGAACTACGTGAAGAATGCAGAAGCCTCAGGAGCCGATGCGATCAACTGGAAGAAAGGGTATCAGCAATGGAAGATGAAATGAATGAAATGAAGCGAGAAGGGAAGTTTAGAGAAAAAAGAATAAAAAGAAATGAGCAAAGCCTCCAAGAAATATGGGACTATGTGAAAAGACCAAATCTACGTCTGATTGGTGTACCTGAAAG
With B2, in data set [2], the “genomic integration and expression of cargo” value was “successfully integrated into the genome and showed prolonged expression”.
